One experiment addresses T1, 4-1BB-rFc融合蛋白 (UniProt Q07011 24-186).
T1 construct: extracellular domain; also called 4-1BB融合蛋白; not shown: rFc part
Kind of experiment: ELISA, fusion protein coated on the plate. On the technique in general: ELISA stands for enzyme-linked immunosorbent assay.

The target of a further experiment is T2, 4-1BB-His融合蛋白 (UniProt Q07011 24-186).
T2 construct: extracellular domain; also called 4-1BB融合蛋白; not shown: His tag
In words: ELISA, fusion protein coated on the plate.

In experiment [1] the target is T3, OX40 expressed on cells (OX40-293F细胞; 19B3 HEK293 NF-κB报告细胞系) (UniProt P43489 29-277).
T3 sequence (looked up): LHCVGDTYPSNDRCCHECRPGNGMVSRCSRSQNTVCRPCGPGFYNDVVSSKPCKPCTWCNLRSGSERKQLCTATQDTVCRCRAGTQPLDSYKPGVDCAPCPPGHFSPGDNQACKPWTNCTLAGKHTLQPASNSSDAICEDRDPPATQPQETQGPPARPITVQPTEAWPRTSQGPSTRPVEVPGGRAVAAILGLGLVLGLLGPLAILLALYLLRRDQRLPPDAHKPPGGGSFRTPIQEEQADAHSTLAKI
In words: cell-based or functional assay.

B1: 本发明抗OX40抗体 (murine monoclonal anti-OX40 antibody of the invention) (antibody, V domains shown)
VH: EVQLQQSGAELVKPGASVKLSCKASGYTFTNYWIHWVKQRPGQGLEWIGEINPSNGRTNSNEKFKNKATLTVDKSSSTAYMQLSSLTSEDSAVYYCAEAVPYYFVYWGQGTTLTVSS
VL: DIVMTQAASSLSASLGDRVTISCRASQDINNYLNWYQQKPDGTVKLLIYFTSGLRSGVPSRFSGSGSGTDYSLTISNLEQEDIATYFCQQGNTLPLTFGAGTKLELN
notes: also called 本发明OX40抗体; 靶向OX40的抗体
With B1, the binding result in the experiment with 4-1BB-rFc融合蛋白 and with 4-1BB-His融合蛋白 was “no binding” in each case. The “NF-κB luciferase reporter (RLU) in 19B3 cells expressing OX40; 半数有效浓度(EC50)” value in experiment [1] worked out at 0.803 µg/mL.

(Values after patent publication CN111303285A (BAILISIKANG BIOLOGICAL PHARMACEUTICAL HANGZHOU CO LTD, dated 2020).)
